Source: paper PMC4342030 (Molecular Biology of the Cell, 2015)

T1: GFP-Rab31 (mouse, UniProt Q921E2 1-195)
T1 sequence (looked up): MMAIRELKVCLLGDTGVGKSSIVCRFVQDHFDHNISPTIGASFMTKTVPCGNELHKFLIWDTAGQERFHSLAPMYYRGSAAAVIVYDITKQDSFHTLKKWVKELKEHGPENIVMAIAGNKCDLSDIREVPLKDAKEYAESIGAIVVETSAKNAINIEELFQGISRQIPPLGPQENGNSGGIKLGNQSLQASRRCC

T2: purified APPL2 after cleavage of GST (mouse, UniProt Q8K3G9 1-662)
T2 sequence (looked up): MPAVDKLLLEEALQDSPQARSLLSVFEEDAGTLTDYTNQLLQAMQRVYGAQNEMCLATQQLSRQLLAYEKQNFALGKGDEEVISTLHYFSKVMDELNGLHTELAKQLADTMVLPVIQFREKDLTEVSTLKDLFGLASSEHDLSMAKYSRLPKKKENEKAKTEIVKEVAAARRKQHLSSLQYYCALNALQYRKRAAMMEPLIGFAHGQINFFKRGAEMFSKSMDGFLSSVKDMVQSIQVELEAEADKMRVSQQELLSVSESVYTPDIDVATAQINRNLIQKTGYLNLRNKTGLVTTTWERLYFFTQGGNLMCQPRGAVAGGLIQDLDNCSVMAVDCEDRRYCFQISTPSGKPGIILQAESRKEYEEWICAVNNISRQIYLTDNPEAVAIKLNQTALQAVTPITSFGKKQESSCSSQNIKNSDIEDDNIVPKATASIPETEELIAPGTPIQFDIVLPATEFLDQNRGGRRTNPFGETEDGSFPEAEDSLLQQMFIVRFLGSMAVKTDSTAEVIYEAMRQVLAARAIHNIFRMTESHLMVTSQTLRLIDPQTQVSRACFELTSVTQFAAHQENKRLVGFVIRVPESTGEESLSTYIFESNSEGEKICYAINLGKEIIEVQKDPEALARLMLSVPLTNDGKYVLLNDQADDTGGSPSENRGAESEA


How the values were obtained:
GFP-Rab31 = target: T1, GFP-Rab31; assay: co-IP
[1] = target: T2, purified APPL2 after cleavage of GST; assay: pull-down

| Binder | fold preference over GFP-Rab5a (GFP-Rab31) [fold] | binding result [1] |
| --- | --- | --- |
| APPL2 (adaptor protein, phosphotyrosine interaction, PH domain, and leucine zipper–containing 2) (natural protein, mouse (endogenous in RAW 264.7), UniProt Q8K3G9 1-662, looked up) MPAVDKLLLEEALQDSPQARSLLSVFEEDAGTLTDYTNQLLQAMQRVYGAQNEMCLATQQLSRQLLAYEKQNFALGKGDEEVISTLHYFSKVMDELNGLHTELAKQLADTMVLPVIQFREKDLTEVSTLKDLFGLASSEHDLSMAKYSRLPKKKENEKAKTEIVKEVAAARRKQHLSSLQYYCALNALQYRKRAAMMEPLIGFAHGQINFFKRGAEMFSKSMDGFLSSVKDMVQSIQVELEAEADKMRVSQQELLSVSESVYTPDIDVATAQINRNLIQKTGYLNLRNKTGLVTTTWERLYFFTQGGNLMCQPRGAVAGGLIQDLDNCSVMAVDCEDRRYCFQISTPSGKPGIILQAESRKEYEEWICAVNNISRQIYLTDNPEAVAIKLNQTALQAVTPITSFGKKQESSCSSQNIKNSDIEDDNIVPKATASIPETEELIAPGTPIQFDIVLPATEFLDQNRGGRRTNPFGETEDGSFPEAEDSLLQQMFIVRFLGSMAVKTDSTAEVIYEAMRQVLAARAIHNIFRMTESHLMVTSQTLRLIDPQTQVSRACFELTSVTQFAAHQENKRLVGFVIRVPESTGEESLSTYIFESNSEGEKICYAINLGKEIIEVQKDPEALARLMLSVPLTNDGKYVLLNDQADDTGGSPSENRGAESEA | 3 |  |
| GST-Rab31 (natural protein, mouse, UniProt Q921E2 1-195, looked up) MMAIRELKVCLLGDTGVGKSSIVCRFVQDHFDHNISPTIGASFMTKTVPCGNELHKFLIWDTAGQERFHSLAPMYYRGSAAAVIVYDITKQDSFHTLKKWVKELKEHGPENIVMAIAGNKCDLSDIREVPLKDAKEYAESIGAIVVETSAKNAINIEELFQGISRQIPPLGPQENGNSGGIKLGNQSLQASRRCC |  | binds |
